Data on eight molecules can be found in article PMC2659244 (The Journal of Biological Chemistry, 2009).

B1: talin IBS2-B (residues 2137-2293), His/V5-tagged (domain or fragment, mouse, UniProt P26039 2137-2293, looked up)
chain: DEATKGTRALEATTEHIRQELAVFCSPEPPAKTSTPEDFIRMTKGITMATAKAVAAGNSCRQEDVIATANLSRRAIADMLRACKEAAFHPEVAPDVRLRALHYGRECANGYLELLDHVLLTLQKPNPDLKQQLTGHSKRVAGSVTELIQAAEAMKGT
B2: talin IBS2-A (residues 1974-2140), His/V5-tagged (domain or fragment, mouse, UniProt P26039 1974-2140, looked up)
chain: GTQACITAASAVSGIIADLDTTIMFATAGTLNREGAETFADHREGILKTAKVLVEDTKVLVQNAAGSQEKLAQAAQSSVATITRLADVVKLGAASLGAEDPETQVVLINAVKDVAKALGDLISATKAAAGKVGDDPAVWQLKNSAKVMVTNVTSLLKTVKAVEDEAT
B3: talin IBS2-A (residues 1974-2140), His tag removed (domain or fragment, mouse, UniProt P26039 1974-2140, looked up)
chain: B2 chain
B4: talin rod polypeptide 1974-2541 (domain or fragment, UniProt P26039 1974-2541, looked up)
chain: GTQACITAASAVSGIIADLDTTIMFATAGTLNREGAETFADHREGILKTAKVLVEDTKVLVQNAAGSQEKLAQAAQSSVATITRLADVVKLGAASLGAEDPETQVVLINAVKDVAKALGDLISATKAAAGKVGDDPAVWQLKNSAKVMVTNVTSLLKTVKAVEDEATKGTRALEATTEHIRQELAVFCSPEPPAKTSTPEDFIRMTKGITMATAKAVAAGNSCRQEDVIATANLSRRAIADMLRACKEAAFHPEVAPDVRLRALHYGRECANGYLELLDHVLLTLQKPNPDLKQQLTGHSKRVAGSVTELIQAAEAMKGTEWVDPEDPTVIAENELLGAAAAIEAAAKKLEQLKPRAKPKEADESLNFEEQILEAAKSIAAATSALVKAASAAQRELVAQGKVGAIPANALDDGQWSQGLISAARMVAAATNNLCEAANAAVQGHASQEKLISSAKQVAASTAQLLVACKVKADQDSEAMKRLQAAGNAVKRASDNLVKAAQKAAAFEDQENETVVVKEKMVGGIAQIIAAQEEMLRKERELEEARKKLAQIRQQQYKFLPSELRDEH
B5: talin IBS2 polypeptide (residues 1974-2293), His/V5-tagged (domain or fragment, mouse, UniProt P26039 1974-2293, looked up)
chain: GTQACITAASAVSGIIADLDTTIMFATAGTLNREGAETFADHREGILKTAKVLVEDTKVLVQNAAGSQEKLAQAAQSSVATITRLADVVKLGAASLGAEDPETQVVLINAVKDVAKALGDLISATKAAAGKVGDDPAVWQLKNSAKVMVTNVTSLLKTVKAVEDEATKGTRALEATTEHIRQELAVFCSPEPPAKTSTPEDFIRMTKGITMATAKAVAAGNSCRQEDVIATANLSRRAIADMLRACKEAAFHPEVAPDVRLRALHYGRECANGYLELLDHVLLTLQKPNPDLKQQLTGHSKRVAGSVTELIQAAEAMKGT
B6: IBS2: recombinant murine talin residues 1974-2293, two five-helix bundles, integrin-binding site 2 (protein)
chain: B5 chain
modifications: left off: His tag, N-terminal, kept | V5 epitope, N-terminal, kept
B7: chicken vinculin domain 1 (residues 1-258) (domain or fragment, UniProt P12003 1-258, looked up)
chain: MPVFHTRTIESILEPVAQQISHLVIMHEEGEVDGKAIPDLTAPVSAVQAAVSNLVRVGKETVQTTEDQILKRDMPPAFIKVENACTKLVRAAQMLQADPYSVPARDYLIDGSRGILSGTSDLLLTFDEAEVRKIIRVCKGILEYLTVAEVVETMEDLVTYTKNLGPGMTKMAKMIDERQQELTHQEHRVMLVNSMNTVKELLPVLISAMKIFVTTKNTKSQGIEEALKNRNFTVEKMSAEINEIIRVLQLTSWDEDAW

Assay [1] addresses T1, His-Avi-tagged β3-integrin tail, biotinylated (UniProt P05106 742-788, biotin (biotinylated tails, held on NeutrAvidin)).
T1 chain (looked up): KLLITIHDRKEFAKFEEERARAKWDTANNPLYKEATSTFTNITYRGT
The assay is described as follows: ELISA. (In general: ELISA stands for enzyme-linked immunosorbent assay.)

For assay [2], the target named is B7. Briefly: SEC. In general terms: In gel filtration, larger molecules generally elute earlier.
Assay [3] addresses T2, His-Avi-tagged β1A-integrin tail, biotinylated (UniProt P05556-1 752-798, biotin (biotinylated tails, held on NeutrAvidin)).
T2 chain (looked up): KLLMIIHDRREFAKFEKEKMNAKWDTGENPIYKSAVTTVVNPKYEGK
Briefly: ELISA.

The next assay relates to β3-integrin tail. Briefly: ELISA-type binding of talin polypeptides to immobilized β3-integrin tails.
In assay [4] the target is T3, talin IBS2 polypeptide (residues 1974-2293), His tag removed (mouse, UniProt P26039 1974-2293). The assay is described as follows: SEC.
The target of assay [5] is T3, talin IBS2 polypeptide (residues …). The assay is described as follows: NMR titration.

Regarding B1, the EC50 in assay [1] was more than 2500 nM.

As for B2, the EC50 in assay [1] is more than 2500 nM. Consider B3, for which the binding result in assay [2] is listed as “binds”. In the case of B4, the EC50 in assay [1] was more than 2500 nM. For the molecule B5, the values for the EC50 in assay [1] and in assay [3] were 900 ± 200 nM and 900 ± 100 nM, respectively. Regarding B6, the “affinity for β-integrin tails, fold weaker than binding by the talin FERM domain” value in the assay with β3-integrin tail was approximately 2 fold.

For the molecule B7, in assay [4], the binding result was “binds”. Take KLLITIHDRKEFAKFEEERARAKWDTANNPLYKEATSTFTNITYRGT (peptide, UniProt P05106 742-788, looked up) [full-length β3-integrin tail peptide (residues 716-762)]: the binding result in assay [5] is reported as “binds”.

As usually defined, the EC50 is the concentration that produces a half-maximal response.
